Results: US20240270821A1, “GIP/GLP1/GCG TRI-RECEPTOR AGONISTS AND USES THEREOF” (priority 2023, published 2024)

B1: Example 235 (peptide)
chain: YXQGTFTSDFSXXLDKKAQXAFIEYLLEGGPSSGAXPPGGS
modifications: Aib, Orn, αMeL, Hyp; AEEA-γGlu-C18 diacid on Lys; C-terminal amide; synthetic construct; SITE 2: note = 2-Aminoisobutyric Acid; SITE 12: note = L-ornithine; SITE 13: note = alpha-methyl-leucine; SITE 17: note = Lysine is chemically modified through conjugation of the epsilon-amino group of the Lysine side chain with (2-[2-(2-Amino-ethoxy)-ethoxy]-acetyl)-(gamma-Glu)
B2: Example 236 (peptide)
chain: YXQGTFTSDFSXXLDKKAQXAFIEYLLEGGPSSGAPXPGGS
modifications: Aib, Orn, αMeL, Hyp; acylated Lys; C-terminal amide; synthetic construct; SITE 2: note = 2-Aminoisobutyric Acid; SITE 12: note = L-ornithine; SITE 13: note = alpha-methyl-leucine; SITE 17: note = Lysine is chemically modified through conjugation of the epsilon-amino group of the Lysine side chain with (2-[2-(2-Amino-ethoxy)-ethoxy]-acetyl)-(gamma-Glu)
B3: Example 257 (peptide)
chain: YXQGTFTSDFSXXLDKKAQXAFIEYLLEAGPSSGXPPPSGH
modifications: synthetic construct; SITE 2: note = 2-Aminoisobutyric Acid; SITE 12: note = L-ornithine; SITE 13: note = alpha-methyl-leucine; SITE 17: note = Lysine is chemically modified through conjugation of the epsilon-amino group of the Lysine side chain with (2-[2-(2-Amino-ethoxy)-ethoxy]-acetyl)2-(gamma-Glu)
B4: Example 237 (peptide)
chain: YXQGTFTSDFSXXLDKKAQXAFIEYLLEGGPSSGAPPXGGS
modifications: non-natural residues; lipidated Lys AEEA-γGlu-C18 diacid; C-term amide; synthetic construct; SITE 2: note = 2-Aminoisobutyric Acid; SITE 12: note = L-ornithine; SITE 13: note = alpha-methyl-leucine; SITE 17: note = Lysine is chemically modified through conjugation of the epsilon-amino group of the Lysine side chain with (2-[2-(2-Amino-ethoxy)-ethoxy]-acetyl)-(gamma-Glu)
B5: Example 258 (peptide)
chain: YXQGTFTSDFSXXLDKKAQXAFIEYLLEAGPSSGXPPPSGX
modifications: synthetic construct; SITE 2: note = 2-Aminoisobutyric Acid; SITE 12: note = L-ornithine; SITE 13: note = alpha-methyl-leucine; SITE 17: note = Lysine is chemically modified through conjugation of the epsilon-amino group of the Lysine side chain with (2-[2-(2-Amino-ethoxy)-ethoxy]-acetyl)2-(gamma-Glu)
B6: Example 221 (peptide)
chain: YXQGTFTSDFSRXLDKKAQXAFIEYLIEXGESSGAPPPSGS
modifications: C-terminal amide; lysine acylated with AEEA-γ-Glu-C18 diacid; synthetic construct; SITE 2: note = 2-Aminoisobutyric Acid; SITE 13: note = alpha-methyl-leucine; SITE 17: note = Lysine is chemically modified through conjugation of the epsilon-amino group of the Lysine side chain with (2-[2-(2-Amino-ethoxy)-ethoxy]-acetyl)-(gamma-Glu)-CO-(CH2) 16-CO2H; SITE 20: n
B7: Example 243 (peptide)
chain: YXQGTFTSDFSXXLDKKAQXAFIEYLLEXGHSSGAPPPSGS
modifications: Aib, Orn, αMeL; lipidated Lys; C-terminal amide; synthetic construct; SITE 2: note = 2-Aminoisobutyric Acid; SITE 12: note = L-ornithine; SITE 13: note = alpha-methyl-leucine; SITE 17: note = Lysine is chemically modified through conjugation of the epsilon-amino group of the Lysine side chain with (2-[2-(2-Amino-ethoxy)-ethoxy]-acetyl)-(gamma-Glu)
B8: Example 240 (peptide)
chain: YXQGTFTSDFSXXLDKKAQXAFIEYLLEXGESSGAPPPSGS
modifications: non-natural residues; lipidated Lys; C-terminal amide; synthetic construct; SITE 2: note = 2-Aminoisobutyric Acid; SITE 12: note = L-ornithine; SITE 13: note = alpha-methyl-leucine; SITE 17: note = Lysine is chemically modified through conjugation of the epsilon-amino group of the Lysine side chain with (2-[2-(2-Amino-ethoxy)-ethoxy]-acetyl)-(gamma-Glu)
B9: Example 244 (peptide)
chain: YXQGTFTSDFSXXLDKKAQXAFIEYLLEXGESSGAPPPSGS
modifications: Aib, Orn, αMeL; γGlu-AEEA-γGlu-C18 diacid on Lys; C-terminal amide; synthetic construct; SITE 2: note = 2-Aminoisobutyric Acid; SITE 12: note = L-ornithine; SITE 13: note = alpha-methyl-leucine; SITE 17: note = Lysine is chemically modified through conjugation of the epsilon-amino group of the Lysine side chain with (gamma-Glu)-(2-[2-(2-Amino-ethoxy)-ethoxy]-acetyl)
B10: Example 228 (peptide)
chain: YXQGTFTSDFSXXLDKKAQXAFIEYLIEXGESSGAPPPSGE
modifications: non-natural residues, acylated Lys, C-terminal amide; synthetic construct; SITE 2: note = 2-Aminoisobutyric Acid; SITE 12: note = L-ornithine; SITE 13: note = alpha-methyl-leucine; SITE 17: note = Lysine is chemically modified through conjugation of the epsilon-amino group of the Lysine side chain with (2-[2-(2-Amino-ethoxy)-ethoxy]-acetyl)-(gamma-Glu)
B11: Example 229 (peptide)
chain: YXQGTFTSDFSXXLDKKAQXAFIEYLIEXGESSGAPPPSGS
modifications: non-natural residues; lipidated Lys AEEA-γGlu-C18 diacid; C-term amide; synthetic construct; SITE 2: note = 2-Aminoisobutyric Acid; SITE 12: note = L-ornithine; SITE 13: note = alpha-methyl-leucine; SITE 17: note = Lysine is chemically modified through conjugation of the epsilon-amino group of the Lysine side chain with (2-[2-(2-Amino-ethoxy)-ethoxy]-acetyl)-(gamma-Glu)
B12: Example 234 (peptide)
chain: YXQGTFTSDFSXXLDKKAQXAFIEYLLEGGXSSGAPPPGGS
modifications: Aib, Orn, αMeL, Hyp; lipidated Lys; C-terminal amide; synthetic construct; SITE 2: note = 2-Aminoisobutyric Acid; SITE 12: note = L-ornithine; SITE 13: note = alpha-methyl-leucine; SITE 17: note = Lysine is chemically modified through conjugation of the epsilon-amino group of the Lysine side chain with (2-[2-(2-Amino-ethoxy)-ethoxy]-acetyl)-(gamma-Glu)
B13: Example 245 (peptide)
chain: YXQGTFTSDFSXXLDKKAQXAFIEYLLEXGHSSGAPPPSGS
modifications: Aib, Orn, αMeL; lipidated Lys; C-terminal amide; synthetic construct; SITE 2: note = 2-Aminoisobutyric Acid; SITE 12: note = L-ornithine; SITE 13: note = alpha-methyl-leucine; SITE 17: note = Lysine is chemically modified through conjugation of the epsilon-amino group of the Lysine side chain with (gamma-Glu)-(2-[2-(2-Amino-ethoxy)-ethoxy]-acetyl)

Columns and labels:
Experiment in all cases: cell-based or functional assay
hGLP-1R = hGLP-1R (Homo sapiens, UniProt P43220)
hGLP-1R, sequence (P43220 24-463): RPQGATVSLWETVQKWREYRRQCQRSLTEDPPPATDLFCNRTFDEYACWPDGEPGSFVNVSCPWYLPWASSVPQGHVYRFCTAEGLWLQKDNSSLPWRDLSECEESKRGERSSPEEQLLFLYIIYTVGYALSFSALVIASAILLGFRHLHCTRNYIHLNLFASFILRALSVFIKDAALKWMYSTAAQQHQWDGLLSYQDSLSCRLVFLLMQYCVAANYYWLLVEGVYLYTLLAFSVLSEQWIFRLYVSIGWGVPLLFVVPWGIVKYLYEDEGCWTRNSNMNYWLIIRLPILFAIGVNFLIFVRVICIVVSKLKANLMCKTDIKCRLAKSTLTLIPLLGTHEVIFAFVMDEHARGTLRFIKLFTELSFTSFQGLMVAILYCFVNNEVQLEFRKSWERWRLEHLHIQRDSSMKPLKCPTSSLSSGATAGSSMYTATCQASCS

[1] = molecular target: T1, human GIP receptor (human) (UniProt P48546)
T1 sequence (looked up): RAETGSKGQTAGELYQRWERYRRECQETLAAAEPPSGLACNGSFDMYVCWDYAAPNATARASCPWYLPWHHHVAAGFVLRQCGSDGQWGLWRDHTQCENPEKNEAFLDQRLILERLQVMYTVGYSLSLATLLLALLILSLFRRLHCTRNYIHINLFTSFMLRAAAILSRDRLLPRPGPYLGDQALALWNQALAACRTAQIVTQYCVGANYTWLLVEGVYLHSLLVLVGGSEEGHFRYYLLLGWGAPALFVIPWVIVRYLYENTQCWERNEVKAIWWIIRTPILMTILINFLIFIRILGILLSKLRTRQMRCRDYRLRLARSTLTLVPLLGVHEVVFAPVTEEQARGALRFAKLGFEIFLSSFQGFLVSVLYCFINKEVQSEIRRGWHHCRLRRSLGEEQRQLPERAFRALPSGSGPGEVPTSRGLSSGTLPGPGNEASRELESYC

[2] = molecular target: human glucagon receptor (human) (UniProt P47871)
human glucagon receptor (human), sequence (P47871 26-477): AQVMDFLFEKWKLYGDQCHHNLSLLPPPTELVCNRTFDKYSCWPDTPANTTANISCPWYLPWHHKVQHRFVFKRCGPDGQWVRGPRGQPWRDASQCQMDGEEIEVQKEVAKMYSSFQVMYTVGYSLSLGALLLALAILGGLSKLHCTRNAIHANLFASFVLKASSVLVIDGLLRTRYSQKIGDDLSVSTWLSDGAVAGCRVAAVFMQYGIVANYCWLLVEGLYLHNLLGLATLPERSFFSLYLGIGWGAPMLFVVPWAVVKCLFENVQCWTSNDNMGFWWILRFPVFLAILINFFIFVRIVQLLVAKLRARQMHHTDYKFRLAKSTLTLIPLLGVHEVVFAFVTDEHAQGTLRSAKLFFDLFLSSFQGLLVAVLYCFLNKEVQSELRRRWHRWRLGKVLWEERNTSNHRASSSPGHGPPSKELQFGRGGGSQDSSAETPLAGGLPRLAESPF

| Binder | Relative cAMP EC50 (hGLP-1R) | cAMP Rel EC50, nM (1% HSA) (hGLP-1R) | Relative cAMP EC50 [1] | cAMP Rel EC50, nM (1% HSA) [1] | Relative cAMP EC50 [2] | cAMP Rel EC50, nM (1% HSA) [2] | cAMP Rel EC50 (in the presence of 1% HSA) (hGLP-1R) | cAMP Rel EC50 (in the presence of 1% HSA) [1] | cAMP Rel EC50 (in the presence of 1% HSA) [2] |
| --- | --- | --- | --- | --- | --- | --- | --- | --- | --- |
| B1 | 3.55 nM | 457 nM | 0.388 nM | 40.8 nM | 4.35 nM | 700 nM | – | – | – |
| B2 | 3.33 nM | 261 nM | 0.309 nM | 24.8 nM | 2.23 nM | 309 nM | – | – | – |
| B3 | 2.66 nM | – | 0.135 nM | – | 7.36 nM | – | 388 nM | 21 nM | 1210 nM |
| B4 | 3.4 nM | 291 nM | 0.228 nM | 30.9 nM | 3.77 nM | 441 nM | – | – | – |
| B5 | 2.71 nM | – | 0.154 nM | – | 7.15 nM | – | 492 nM | 23.3 nM | 1280 nM |
| B6 | 0.629 nM | – | 0.105 nM | – | 11.3 nM | – | – | – | – |
| B7 | 6.46 nM | – | 0.178 nM | – | 6.86 nM | – | – | – | – |
| B8 | 3.62 nM | 396 nM | 0.214 nM | 10.4 nM | 2.02 nM | 521 nM | – | – | – |
| B9 | 7.68 nM | 645 nM | 0.0972 nM | 18.8 nM | 4.81 nM | 1230 nM | – | – | – |
| B10 | 1.52 nM | – | 0.147 nM | – | 1.38 nM | – | – | – | – |
| B11 | 1.58 nM | – | 0.179 nM | – | 2.3 nM | – | – | – | – |
| B12 | 4.72 nM | 604 nM | 0.322 nM | 31.1 nM | 7.87 nM | 702 nM | – | – | – |
| B13 | 5.99 nM | 540 nM | 0.0684 nM | 10.5 nM | 7.07 nM | 1120 nM | – | – | – |
